Assay results: US20080026996A1, “Selective Vpac2 Receptor Reptide Agonists” (ELI LILLY AND COMPANY, priority 2004, published 2008)
Read-outs that look alike come from different tables or passages of the source. Where no end group is shown, it is not given here. [ ]: non-standard residue; d: D form. The star is where a group is joined. hArg = N=C(N)NCCCC[C@H](N)C(=O)O; Orn = NCCC[C@H](N)C(=O)O; Hexanoyl = CCCCCC(=O)*; Aib = CC(C)(N)C(=O)O

T1: human VPAC2 (Homo sapiens, UniProt P41587)
T1 construct: expressed in transfected cells
T1 sequence (P41587 24-438): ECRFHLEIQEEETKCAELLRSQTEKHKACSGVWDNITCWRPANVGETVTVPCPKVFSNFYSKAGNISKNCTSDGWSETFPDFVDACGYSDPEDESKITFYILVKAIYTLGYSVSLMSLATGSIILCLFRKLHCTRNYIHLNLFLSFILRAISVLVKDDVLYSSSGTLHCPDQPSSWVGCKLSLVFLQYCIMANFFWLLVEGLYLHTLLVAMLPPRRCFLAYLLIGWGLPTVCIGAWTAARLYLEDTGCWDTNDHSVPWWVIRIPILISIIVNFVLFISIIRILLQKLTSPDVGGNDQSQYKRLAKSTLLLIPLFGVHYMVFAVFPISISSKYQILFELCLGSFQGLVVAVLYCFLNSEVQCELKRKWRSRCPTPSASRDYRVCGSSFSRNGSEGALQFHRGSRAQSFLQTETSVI

T2: human VPAC1 (Homo sapiens, UniProt P32241)
T2 sequence (P32241 31-457): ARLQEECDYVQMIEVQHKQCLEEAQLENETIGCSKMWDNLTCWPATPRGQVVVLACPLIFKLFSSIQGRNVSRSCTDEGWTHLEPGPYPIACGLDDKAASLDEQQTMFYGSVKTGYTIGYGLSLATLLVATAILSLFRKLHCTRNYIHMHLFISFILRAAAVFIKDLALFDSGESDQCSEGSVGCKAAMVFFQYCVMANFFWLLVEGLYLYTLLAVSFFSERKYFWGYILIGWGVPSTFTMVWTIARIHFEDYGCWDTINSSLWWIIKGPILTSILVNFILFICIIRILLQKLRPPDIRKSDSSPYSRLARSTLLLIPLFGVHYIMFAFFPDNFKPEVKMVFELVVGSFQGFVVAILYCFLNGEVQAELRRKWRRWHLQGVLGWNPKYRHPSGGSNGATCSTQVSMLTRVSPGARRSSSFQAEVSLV

T3: human PAC1 (Homo sapiens, UniProt P41586)
T3 sequence (P41586 21-468): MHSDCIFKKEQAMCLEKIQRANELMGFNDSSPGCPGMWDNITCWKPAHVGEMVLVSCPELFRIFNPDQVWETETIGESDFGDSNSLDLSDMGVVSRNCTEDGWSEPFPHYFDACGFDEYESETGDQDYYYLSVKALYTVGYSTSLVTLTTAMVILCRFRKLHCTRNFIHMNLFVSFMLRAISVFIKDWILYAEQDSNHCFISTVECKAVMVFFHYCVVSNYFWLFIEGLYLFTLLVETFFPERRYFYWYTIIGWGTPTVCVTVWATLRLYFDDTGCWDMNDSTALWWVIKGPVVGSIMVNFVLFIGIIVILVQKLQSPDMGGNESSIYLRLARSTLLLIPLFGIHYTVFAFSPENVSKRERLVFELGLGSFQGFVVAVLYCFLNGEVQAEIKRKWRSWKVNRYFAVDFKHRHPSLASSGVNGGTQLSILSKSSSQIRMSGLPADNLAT

T4: human VPAC2 receptor (human, UniProt P41587 24-438)
T4 sequence (looked up): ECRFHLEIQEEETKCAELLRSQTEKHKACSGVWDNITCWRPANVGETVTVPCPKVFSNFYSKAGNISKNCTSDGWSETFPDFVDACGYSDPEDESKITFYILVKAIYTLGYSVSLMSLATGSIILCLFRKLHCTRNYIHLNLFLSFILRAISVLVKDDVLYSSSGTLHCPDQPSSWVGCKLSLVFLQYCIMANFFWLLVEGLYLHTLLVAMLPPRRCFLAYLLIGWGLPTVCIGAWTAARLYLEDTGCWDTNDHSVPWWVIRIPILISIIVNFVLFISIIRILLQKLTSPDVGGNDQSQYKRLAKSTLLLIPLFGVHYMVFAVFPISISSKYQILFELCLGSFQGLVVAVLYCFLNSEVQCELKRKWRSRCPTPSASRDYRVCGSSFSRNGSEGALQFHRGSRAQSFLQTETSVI

T5: human VPAC1 receptor (human, UniProt P32241 31-457)
T5 sequence (looked up): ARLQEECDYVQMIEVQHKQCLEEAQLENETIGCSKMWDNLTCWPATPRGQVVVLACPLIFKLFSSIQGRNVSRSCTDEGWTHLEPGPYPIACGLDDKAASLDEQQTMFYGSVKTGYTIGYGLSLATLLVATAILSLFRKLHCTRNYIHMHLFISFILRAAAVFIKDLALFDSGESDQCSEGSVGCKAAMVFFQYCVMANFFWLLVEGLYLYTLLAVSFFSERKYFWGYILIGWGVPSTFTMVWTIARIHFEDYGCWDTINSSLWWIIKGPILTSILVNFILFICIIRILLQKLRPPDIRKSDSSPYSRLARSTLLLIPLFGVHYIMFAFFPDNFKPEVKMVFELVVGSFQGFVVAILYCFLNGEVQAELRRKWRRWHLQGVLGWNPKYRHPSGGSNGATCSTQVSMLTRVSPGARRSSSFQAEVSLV

T6: human PAC1 receptor (human, UniProt P41586 21-468)
T6 sequence (looked up): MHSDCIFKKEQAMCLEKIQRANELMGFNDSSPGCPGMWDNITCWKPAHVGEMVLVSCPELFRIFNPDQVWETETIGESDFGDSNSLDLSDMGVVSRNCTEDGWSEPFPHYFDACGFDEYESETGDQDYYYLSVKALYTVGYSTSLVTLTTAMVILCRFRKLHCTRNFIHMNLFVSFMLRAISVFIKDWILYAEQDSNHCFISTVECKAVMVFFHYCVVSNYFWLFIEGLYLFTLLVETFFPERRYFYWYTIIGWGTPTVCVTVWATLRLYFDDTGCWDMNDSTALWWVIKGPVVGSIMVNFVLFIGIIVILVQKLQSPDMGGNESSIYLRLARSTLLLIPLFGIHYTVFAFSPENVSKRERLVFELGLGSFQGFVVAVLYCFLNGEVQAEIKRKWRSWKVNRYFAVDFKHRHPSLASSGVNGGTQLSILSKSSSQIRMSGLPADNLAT


Experiments:
human VPAC2 [1] = molecular target: T1, human VPAC2; assay: Alpha screen cAMP in vitro potency, human VPAC2 receptor; type: cell-based; details: cAMP generation; single result from two analyses performed in a single run; read-out: Human VPAC2 Receptor: Alpha Screen EC50
Procedure, shortened: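 Dissociated cells, 50,000 per point in stimulation buffer, were incubated with stimuli and AlphaScreen acceptor beads for 60 min.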

human VPAC2 [2] = molecular target: T1, human VPAC2; assay: Filter binding assay, membranes of stable VPAC2 cell line, 125I-labeled VIP tracer (Table 2); details: read-out: Human VPAC2 Receptor Binding
Procedure, shortened: (§1)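 Scintillation counting of filter-retained radioligand gave the read-out. Compounds competed with the labelled tracer (about 40000 cpm) for 2.5 μg membranes during 1 hour of shaking in HEPES pH 7.4 buffer containing 0.5% BSA.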

[3] = Rat serum stability studies (remaining active peptide by DiscoveRx cAMP on CHO-VPAC2 cells); type: in vitro ADME
Procedure, shortened: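 Rat serum, 18 h: +aprotinin aliquot at 4° C, no-aprotinin aliquot at 37° C. Then 30 min RT step, supernatant removed, 1 h shaking at 300 rpm. DiscoveRx cAMP kit on CHO-VPAC2; EC50 from cAMP data vs standards.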

human VPAC1 = molecular target: T2, human VPAC1; assay: Filter binding assay, membranes of cells transiently transfected with human VPAC1, 125I-labeled VIP tracer (Table 2); parameters: expressed in transfected cells; details: read-out: Human VPAC1 Receptor Binding
Procedure, shortened: as §1

human PAC1 = molecular target: T3, human PAC1; assay: Filter binding assay, membranes of cells transiently transfected with human PAC1, 125I-labeled PACAP-27 tracer (Table 2); parameters: expressed in transfected cells; details: read-out: Human PAC1 Receptor Binding
Procedure, shortened: as §1

human VPAC2 receptor = molecular target: T4, human VPAC2 receptor; assay: cell-based or functional assay
human VPAC1 receptor = molecular target: T5, human VPAC1 receptor; assay: cell-based or functional assay
human PAC1 receptor = molecular target: T6, human PAC1 receptor; assay: cell-based or functional assay

Molecule	EC50 (human VPAC2 [1])	IC50 (human VPAC2 [2])	Rat Serum Stability (estimated purity in % after 18 hours) [3]	IC50 (human VPAC1)	IC50 (human PAC1)	EC50 cAMP, Alpha Screen (human VPAC2 receptor)	EC50 cAMP, DiscoveRx (human VPAC2 receptor)	EC50 cAMP, DiscoveRx (human VPAC1 receptor)	EC50 cAMP, DiscoveRx (human PAC1 receptor)	EC50 cAMP, DiscoveRx (human PAC1 receptor; record 2)
Hexanoyl-HSDAVFTDNYTRL[Orn][Aib]QVAA[Aib]KYLQSIKNKRYGGPSSGAPPPS [Agonist P319]	0.26 nM	0.69 nM	13.53%	> 3000 nM	> 25000 nM					
Hexanoyl-HSDAVFTEEYTRLQKQVAAKQYLQSIKNKRYGGPSSGAPPPS [Agonist P165]	0.94 nM	18.4 nM	7.28%	486 nM	2860 nM					
Hexanoyl-HSDAVFTKNYTRLRKQVAAKKYLQSIKNKRYGGPSSGAPPPS [Agonist P160]	13.2 nM	4.77 nM	<4.25%	50.3 nM	262 nM					
Hexanoyl-HSD[Aib]VFTDNYTRLRKQVAAKKYLQSIKNKRYGGPSSGAPPPS [Agonist P209]	0.1 nM	0.2 nM	0.13%	130 nM	343 nM					
Hexanoyl-HVDAVFTDNYTRLRKQVAAKKYLQSIKNKRYGGPSSGAPPPS [Agonist P99]	0.14 nM	1.72 nM	0.61%	394 nM	2060 nM					
HSDAVFTDNYTRLRKQVAAKKYLQSI[hArg]NKRYGGPSSGAPPPS (ends and bridges not checked) [P22]						2.23 nM	1.18 nM	0.9 nM	73.5 nM	
HSDAVFTDNYTRLRKQVAAIKYLQSIKNKRYGGPSSGAPPPS (not fully specified) [P19]							9.03 nM	2.9 nM		
HSDIVFTDNYTRLRKQVAAKKYLQSIKNKRYGGPSSGAPPPS (not fully specified) [P50]							19.2 nM	111 nM		
HSDAVFTDNYTRFRKQVAAKKYLQSIKNKRYGGPSSGAPPPS [P26]							4.81 nM	0.9 nM	84 nM	
HSDAVFTDNYTRLRKQVAAKKYLQSIKNKRHGGPSSGAPPPS [P28]							3.92 nM	2.6 nM	53.6 nM	
HSDAVFTDNWTRLRKQVAAKKYLQSIKNKRYGGPSSGAPPPS [P27]							27.6 nM	5.2 nM	> 100 nM	
HSDAVFTDNYTRLRKQVAAKKYLQSIKNRRYGGPSSGAPPPS [P25]							3.02 nM	2.7 nM	137 nM	
HSDAVFTDNYTRLRKQVAARKYLQSIKNKRYGGPSSGAPPPS [P20]						2.77 nM	2.13 nM	2 nM	> 25 nM	
H[dA]DAVFTDNYTRLRKQVAAKKYLQSIKNKRYGGPSSGAPPPS [P47]						1.39 nM	1.07 nM	3.6 nM	136 nM	
HSDAVFTDNYTRLRKQVAASKYLQSIKNKRYGGPSSGAPPPS [P21]						11.6 nM	6.87 nM	10.7 nM	> 100 nM	
HSDAVFTDNYTRLRRQVAAKKYLQSIKNKRYGGPSSGAPPPS [P72]							1.79 nM	0.3 nM	35.3 nM	
HSDAVFTDNYTRLRRQVAARRYLQSIRNRRYGGPSSGAPPPS (not fully specified) [P71]							3.14 nM	0.2 nM	14.6 nM	
HSDAVFTDNYTRLRKQVAAKKYLQSIRNKRYGGPSSGAPPPS [P23]						2.3 nM	1.41 nM	0.9 nM	98.3 nM	
HSDAVFTDNYTRLRKQVAAKKYLQSIKNKRF [P34]						2.44 nM	2.28 nM	0.8 nM	80.5 nM	
Ac-HSDAVFTDNYTRLRKQVAAKKYLQSIKNKRYGGPSSGAPPPS [P33]						0.73 nM	0.86 nM	4.7 nM	112 nM	
HSDAVFTDNYTRLRKQVAA[hArg]KYLQSIKNKRYGGPSSGAPPPS (ends and bridges not checked) [P18]								0.4 nM	> 50 nM	435 nM
HSDAVFTDNYTRLRKQVAAKKYLQSIKN[hArg]RYGGPSSGAPPPS (ends and bridges not checked) [P24]							5.78 nM	2.5 nM	> 100 nM	
